Data taken from US20120184019A1 (University of California, published 2012).

Experiments:
[1] = target: the molecule itself; test: self-assembly into filaments, GFP fluorescence microscopy in E. coli
[2] = target: the molecule itself; test: self-assembly into filaments, GFP fluorescence microscopy, time-lapse and FRAP in B. subtilis
[3] = target: the molecule itself; test: GFP fluorescence microscopy in B. subtilis (self-assembly into filaments)

| Protein | binding result [1] | also measured |
| --- | --- | --- |
| Alp7A-GFP fusion protein (OrfB of Bacillus subtilis natto plasmid pLS20 with C-terminal GFP) (other, Observed inside living or fixed E. coli and B. subtilis cells; Not a purified protein; also called pLS20 OrfB; not shown: C-terminal GFP from plasmid pMUTIN-GFP+) MNISRMNVDFGNSMYMNLIDGYFFELPTNVVEISKEAAEGKFTSIVEDPADLKDRLLVSTVIDETERYFLVGELAEPEVLGNQHIKKLHNKVESHIPYVTFLAATAYYQALKGKREDNEVTIEYFQTMLPIWLLKKLDKFSEMQKRMASKFLGTHQVKVLTLGLEKELTIKVEDAACRIESEVARWAIKKNFDLEDKDYAEQFKNYDVVFCDLGGGTDDLVLLPAGLKPPKSRDSFVSNTEAPFLAHLEKLRKEKLLEHFDSVRELEKFIYSNIGKTKMERRDGNTGQKFDLTDIIKKSLKEYTEIKIAQAENTFPAPKDKVYKYLYFGGVGEVLEESISVVTEERYGRDISESNHIVAEDARLLNLYGLEVLSRAEQVKKQANEKEAQSI | binds | – |
| Alp7A(E180A)-GFP (other, Observed in B. subtilis PY79 cells; also called mini-pLS20alp7A(E180A)-gfp product; not shown: C-terminal GFP from plasmid pMUTIN-GFP+) MNISRMNVDFGNSMYMNLIDGYFFELPTNVVEISKEAAEGKFTSIVEDPADLKDRLLVSTVIDETERYFLVGELAEPEVLGNQHIKKLHNKVESHIPYVTFLAATAYYQALKGKREDNEVTIEYFQTMLPIWLLKKLDKFSEMQKRMASKFLGTHQVKVLTLGLEKELTIKVEDAACRIASEVARWAIKKNFDLEDKDYAEQFKNYDVVFCDLGGGTDDLVLLPAGLKPPKSRDSFVSNTEAPFLAHLEKLRKEKLLEHFDSVRELEKFIYSNIGKTKMERRDGNTGQKFDLTDIIKKSLKEYTEIKIAQAENTFPAPKDKVYKYLYFGGVGEVLEESISVVTEERYGRDISESNHIVAEDARLLNLYGLEVLSRAEQVKKQANEKEAQSI | – | binding result [2]: binds |
| Alp7A(D212A)-GFP (other, Observed in B. subtilis PY79 cells; also called mini-pLS20alp7A(D212A)-gfp product; not shown: C-terminal GFP from plasmid pMUTIN-GFP+) MNISRMNVDFGNSMYMNLIDGYFFELPTNVVEISKEAAEGKFTSIVEDPADLKDRLLVSTVIDETERYFLVGELAEPEVLGNQHIKKLHNKVESHIPYVTFLAATAYYQALKGKREDNEVTIEYFQTMLPIWLLKKLDKFSEMQKRMASKFLGTHQVKVLTLGLEKELTIKVEDAACRIESEVARWAIKKNFDLEDKDYAEQFKNYDVVFCALGGGTDDLVLLPAGLKPPKSRDSFVSNTEAPFLAHLEKLRKEKLLEHFDSVRELEKFIYSNIGKTKMERRDGNTGQKFDLTDIIKKSLKEYTEIKIAQAENTFPAPKDKVYKYLYFGGVGEVLEESISVVTEERYGRDISESNHIVAEDARLLNLYGLEVLSRAEQVKKQANEKEAQSI | – | binding result [3]: no binding |
| Alp8A-GFP fusion protein (Orf250 of Proteus vulgaris plasmid Rts1 fused to GFP) (other, Produced in E. coli TOP10 from pEB400; also called Rts1 orf250; pPtrcalp8A-gfp product; not shown: GFP from plasmid pDSW210) MELLRKGRSFGGLFLIKGKVMNQSERFIVGLDIGYSNVKVACGGTQLLDPKVTIFPAYATPEPESDLALAKKSPDEVKVYPNGTEWRVFTNRVGHRELHESYHSTEMYKALFYGALIKATEGRSDVIDILVTGLPVRIANSEADRSQLCESFTGKHEVTPGRFILVKEVVVLSQGVGIMNDILNTEGLISDEDLEFSNILVIDPGYYSMDYVTFHRGDKKNEFSGSSLNATSVIIEEIVRVLERDYPKEGAQETERIETALRLGNKTFNNGFRSVEIEPLIEEVSHRIVSSVVAELLKRTRSIGPVHIIISAGGGARFYDHFIKEAFPQARILQSVNPVASNSIGYWHYGVNKLSSQSD | binds | – |
